Test results as given in US20040005554A1.

What was measured:
[1] = biological target: ARP-GFP fusion protein (human ARP, Leu form from pBSSKII ARP.4, fused to EGFP of pEGFP-N2) (human); assay: anti-GFP plate capture, detection with anti-FLAG M2 and anti-mouse IgG-AP; unconcentrated medium of cotransfection
[2] = biological target: ARP-GFP fusion protein (human ARP, Leu form from pBSSKII ARP.4, fused to EGFP of pEGFP-N2) (human); assay: anti-GFP plate capture, detection with anti-FLAG M2 and anti-mouse IgG-AP; concentrated medium of cotransfection

Chain of FLAG-BRP fusion protein (N-terminal FLAG tag on predicted mature human BRP, secreted through the mouse preprotrypsin signal) (Q86YW7 other isoform, or with tags, fused parts or gaps limits assumed): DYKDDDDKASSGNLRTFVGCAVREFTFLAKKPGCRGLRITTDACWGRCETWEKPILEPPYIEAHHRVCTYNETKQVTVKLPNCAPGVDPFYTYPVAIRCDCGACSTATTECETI

Substance: FLAG-BRP fusion protein (N-terminal FLAG tag on predicted mature human BRP, secreted through the mouse preprotrypsin signal) (from UniProt Q86YW7 25-130)
- Abs 405 nm [1]: 0.972 Abs 405 nm
- Abs 405 nm [2]: 1.41 Abs 405 nm
